Assay results published in US20230295226A1 (FLORIDA ATLANTIC UNIVERSITY BOARD OF TRUSTEES, published 2023).
Bridges are numbered along the chain shown (N, C = ends). Where no end group is shown, it is not given here. [ ]: non-standard residue; d: D form.

Legend:
[1] = target: T1, asialofetuin (UniProt P12763 19-359, limits assumed, glycoprotein; desialylated glycans, described as L-fucose bearing); assay: ITC
T1 construct: also called L-fucose bearing asialofetuin; model glycoprotein
T1 sequence (looked up): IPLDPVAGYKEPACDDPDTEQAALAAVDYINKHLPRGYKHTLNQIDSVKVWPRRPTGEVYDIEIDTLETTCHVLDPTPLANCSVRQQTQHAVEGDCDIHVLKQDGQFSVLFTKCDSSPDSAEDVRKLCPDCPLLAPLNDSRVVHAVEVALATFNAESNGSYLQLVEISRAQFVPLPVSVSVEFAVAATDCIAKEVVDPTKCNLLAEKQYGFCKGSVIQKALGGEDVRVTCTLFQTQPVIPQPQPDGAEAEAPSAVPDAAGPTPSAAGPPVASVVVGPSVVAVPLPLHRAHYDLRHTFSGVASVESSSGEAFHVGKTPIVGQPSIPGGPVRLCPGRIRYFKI

[2] = target: T2, delta opioid receptor (DOR); assay: protein binding radioassay
T2 construct: the library screen elsewhere used human clones in CHO cells

[3] = target: T3, mu opioid receptor (MOR); assay: protein binding radioassay
T3 construct: see m11 for the human receptor of the library screen

[4] = target: T4, kappa opioid receptor (KOR); assay: protein binding radioassay
T4 construct: see m12 for the human receptor of the library screen

[5] = target: T1, asialofetuin; assay: ITC, as cited in the text from Table 1; conflicts with Table 1, which prints 6.4 × 10^4 nM for OL and 4.2 × 10^4 nM for DADLE-OL

How did the Kd [1] turn out when YASPKCFRY[dA]GF[dL]LACT (disulfide 6-16) [DADLE-OL] was run?
The Kd was 42 µM.

And the Kd [2]?
Its Kd is 64 nM.

What about the Kd [3] of the same binder?
The Kd was 3540 nM.

Which results are given for Y[dA]GF[dL]KCFRYPNGVLACT (disulfide 7-17) [DADLE-OL II]?
Kd [1]: 33 µM; Kd [2]: 275 nM; Kd [3]: 123 nM; Kd [4]: 1080 nM

How did the Kd [1] turn out when RVFSLCNATYPYKGACP (disulfide 6-16) [Control peptide (scrambled OL sequence)] was run?
Its Kd is 760 µM.

B1: Odorranalectin (OL) (peptide)
peptide: YASPKCFRYPNGVLACT
modifications: disulfide 6-16
notes: Synthetic copy of the natural product; on-resin disulfide formation by I2 oxidation; also called unmodified OL; OL natural product
For B1, which Kd [1] is on record?
Its Kd is 64 µM.

What about the Kd [5] of the same binder?
The Kd was 42 µM.
